According to US20210095027A1 (Xencor, published 2021):

Target: T1, human CD20 (human, UniProt P11836 1-297)
T1 sequence (looked up): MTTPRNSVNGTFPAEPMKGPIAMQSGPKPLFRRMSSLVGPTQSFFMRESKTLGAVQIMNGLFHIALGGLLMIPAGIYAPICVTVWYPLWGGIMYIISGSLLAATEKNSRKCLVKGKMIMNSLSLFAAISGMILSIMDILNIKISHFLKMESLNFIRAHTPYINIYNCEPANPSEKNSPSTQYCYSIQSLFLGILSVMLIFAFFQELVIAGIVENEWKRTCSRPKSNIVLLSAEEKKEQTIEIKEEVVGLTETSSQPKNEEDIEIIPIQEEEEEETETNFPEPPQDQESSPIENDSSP
Assay: cell-based or functional assay

B1: XENP13676 (bispecific antibody)
chain 1: QVQLVQSGAEVKKPGASVKVSCKASGYTFTSYNMHWVRQAPGQGLEWMGAIYPGNGDTSYNQKFQGRVTITADKSISTAYMELSSLRSEDTAVYYCARSTYYGGDWYFNVWGAGTLVTVSSASTKGPSVFPLAPSSKSTSGGTAALGCLVKDYFPEPVTVSWNSGALTSGVHTFPAVLQSSGLYSLSSVVTVPSSSLGTQTYICNVNHKPSDTKVDKKVEPKSCDKTHTCPPCPAPPVAGPSVFLFPPKPKDTLMISRTPEVTCVVVDVKHEDPEVKFNWYVDGVEVHNAKTKPREEEYNSTYRVVSVLTVLHQDWLNGKEYKCKVSNKALPAPIEKTISKAKGQPREPQVYTLPPSREEMTKNQVSLTCDVSGFYPSDIAVEWESDGQPENNYKTTPPVLDSDGSFFLYSKLTVDKSRWEQGDVFSCSVMHEALHNHYTQKSLSLSPGK
chain 2: not shown
light: QIVLTQSPSSLSASVGDRVTITCRASSSVSYIHWFQQKPGKSPKPLIYATSNLASGVPVRFSGSGSGTDYTLTISSLQPEDFATYYCQQWTSNPPTFGGGTKVEIKRTVAAPSVFIFPPSDEQLKSGTASVVCLLNNFYPREAKVQWKVDNALQSGNSQESVTEQDSKDSTYSLSSTLTLSKADYEKHKVYACEVTHQGLSSPVTKSFNRGEC
- EC50 of Jeko-1 target cell killing (RTCC) in the absence of rituximab: 0.024 µg/mL
- EC50 of Jeko-1 target cell killing (RTCC) in the presence of 3 µg/ml rituximab: 0.051 µg/mL
- EC50 of Jeko-1 target cell killing (RTCC) in the presence of 10 µg/ml rituximab: 0.093 µg/mL
- EC50 of Jeko-1 target cell killing (RTCC) in the presence of 30 µg/ml rituximab: 0.162 µg/mL
- EC50 of Jeko-1 target cell killing (RTCC) in the presence of 100 µg/ml rituximab: 0.387 µg/mL
- EC50 of RTCC against Ramos cells with purified T cells from six healthy donors: 0.0053 to 0.0143 µg/mL
